{"source": "patent US20190256600A1", "about": "(ANAPTYSBIO, published 2019)", "key": {"[1]": {"molecular_target": "T1, full length native human PD-1 (on stably transfected CHO-K1 cells; native on human PBMCs) (human, UniProt Q15116 25-288)", "T1 construct": "whole, on cells; The same entry is used for the CHO-K1 transfectants and for PD-1 natively expressed on human PBMCs; also called cell-surface human PD-1; human PD-1 CHO-K1 cells", "T1 sequence (Q15116 25-288)": "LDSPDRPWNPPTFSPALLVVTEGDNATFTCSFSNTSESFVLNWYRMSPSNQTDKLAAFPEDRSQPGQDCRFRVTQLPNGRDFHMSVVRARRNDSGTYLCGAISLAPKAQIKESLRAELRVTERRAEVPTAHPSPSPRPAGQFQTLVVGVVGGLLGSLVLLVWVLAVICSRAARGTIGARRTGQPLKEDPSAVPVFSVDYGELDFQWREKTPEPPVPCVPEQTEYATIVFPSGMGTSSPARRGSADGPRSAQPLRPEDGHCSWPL", "assay": "flow cytometry on CHO-K1 cells stably expressing full length human PD-1; PE anti-human IgG4 detection", "description": "(§1) Flow cytometry studies were performed with CHO-K1 cell line clones in which either full length native human or cynomolgus monkey PD-1 was stably transfected. An exemplary anti-PD-1 antibody (having heavy and light chains as set forth in SEQ ID NOs: 1 & 2, respectively) was diluted in 3-fold dilutions. Dilutions of exemplary antibody were added to human or cynomolgus monkey PD-1 expressing CHO-K1 cells (1E5 cells) and incubated on ice. Cells were washed twice and incubated on ice with PE-conjugated mouse anti-human IgG4 to detect antibody binding. Cells were washed and resuspended in the presence of propidium iodide to exclude dead cells and fixed and analyzed for fluorescence on a BD FACSArray instrument (BD Biosciences). Data were analyzed for median fluorescence intensity, graphed, and curves fitted for EC₅₀ value calculation in GraphPad Prism (GraphPad Software, Inc.) using a non-linear (sigmoidal) regression analysis."}, "[2]": {"molecular_target": "T2, dimeric human PD-1 fusion protein (fused with mouse IgG2a Fc) (human; mouse, UniProt Q15116 25-167, limits assumed)", "T2 construct": "Soluble dimeric analyte in SPR; also called soluble PD-1 fusion; not shown: mouse IgG2a Fc", "T2 sequence (Q15116 25-167 limits assumed)": "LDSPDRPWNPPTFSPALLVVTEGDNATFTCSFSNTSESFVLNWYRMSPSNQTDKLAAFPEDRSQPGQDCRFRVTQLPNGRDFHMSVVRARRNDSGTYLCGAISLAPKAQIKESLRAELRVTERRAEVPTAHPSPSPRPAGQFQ", "assay": "SPR (Biacore T200); antibody captured on anti-human IgG Fc chip, dimeric PD-1-mouse IgG2a Fc as analyte, 1:1 model", "description": "(§2) SPR analyses were carried out using a Biacore T200 system and kinetic constants were determined using Biacore T200 Evaluation software. […] GE anti-human IgG (Fc-specific) was immobilized on a Biacore CM5 chip. An exemplary anti-PD-1 antibody (having heavy and light chains as set forth in SEQ ID NOs: 1 & 2, respectively) was then captured onto this surface […]. Next, dimeric human or cynomolgus monkey PD-1 fusion proteins (fused with mouse IgG2a Fc) in a two-fold serial dilution series were flowed over the captured exemplary antibody and dissociation was monitored. Capture and analyte binding were performed in HBS-EP+ buffer. Chips were regenerated between each run using 3 M MgCl₂. The resulting sensorgrams were fitted globally using a 1:1 binding model to calculate on- and off-rates (kassoc and kdissoc, respectively) and dissociation constants as a measure of overall affinity (KD)."}, "[3]": {"molecular_target": "T3, dimeric cynomolgus monkey PD-1 fusion protein (fused with mouse IgG2a Fc) (cynomolgus monkey; mouse, UniProt B0LAJ3 25-170)", "T3 construct": "Soluble dimeric analyte in SPR; also called cynomolgus PD-1; soluble PD-1 fusion", "T3 sequence (B0LAJ3 entry or part of it limits assumed)": "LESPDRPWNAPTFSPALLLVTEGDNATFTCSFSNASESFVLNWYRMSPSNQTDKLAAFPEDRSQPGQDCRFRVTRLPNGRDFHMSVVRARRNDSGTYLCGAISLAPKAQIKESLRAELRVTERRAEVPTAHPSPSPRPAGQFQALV", "assay": "SPR (Biacore T200); antibody captured on anti-human IgG Fc chip, dimeric PD-1-mouse IgG2a Fc as analyte, 1:1 model", "description": "as §2"}, "[4]": {"molecular_target": "T4, full length native cynomolgus monkey PD-1 (on stably transfected CHO-K1 cells); native on cynomolgus monkey … (cynomolgus monkey, UniProt B0LAJ3 25-288)", "T4 construct": "The same entry is used for the CHO-K1 transfectants and for PD-1 natively expressed on cynomolgus monkey PBMCs; also called cell-surface cynomolgus monkey PD-1", "T4 sequence (B0LAJ3 entry or part of it limits assumed)": "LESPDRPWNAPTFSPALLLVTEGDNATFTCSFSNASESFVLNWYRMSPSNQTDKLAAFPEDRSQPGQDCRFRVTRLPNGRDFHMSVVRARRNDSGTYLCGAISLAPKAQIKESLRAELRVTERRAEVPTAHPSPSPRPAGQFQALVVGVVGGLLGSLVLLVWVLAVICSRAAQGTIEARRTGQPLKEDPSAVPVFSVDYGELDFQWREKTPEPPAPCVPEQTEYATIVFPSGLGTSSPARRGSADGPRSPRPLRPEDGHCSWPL", "assay": "flow cytometry on CHO-K1 cells stably expressing full length cynomolgus monkey PD-1; PE anti-human IgG4 detection", "description": "as §1"}, "[5]": {"molecular_target": "T3, dimeric cynomolgus monkey PD-1 fusion …", "assay": "SPR (Biacore T200); cynomolgus monkey against human PD-1 fusion", "description": "as §2"}, "[6]": {"molecular_target": "T4, full length native cynomolgus monkey …", "assay": "receptor occupancy by flow cytometry on cynomolgus monkey PBMCs (CD3+/IgG4+ cells, PE-labeled anti-IgG4), pre-incubation with a dilution series of the antibody [panel Cynomolgus monkey]", "excerpt": "(§3) For these studies, PBMCs from healthy human donors or cynomolgus monkeys were used. Human PBMCs were isolated from buffy coats obtained from the Indiana Blood Center and cynomolgus monkey PBMCs were isolated from peripheral blood collected aseptically into sodium heparin obtained from Worldwide Primates, Inc. In both cases, separation was by Ficoll using Ficoll-Paque 1.077 and cryopreserved for later use.\n(§4) On the day of the experiments, the cryopreserved cells were thawed and the cell concentration was adjusted to 2E6 cells/ml prior to resting overnight at 37° C. in a humidified CO₂ incubator. Cells were then pelleted and re-suspended in 1 ml of media and recounted. The cell concentration was adjusted to 4E5 cells/150 μl of media. Human AB Serum (40 μl/ml) was added to block Fc receptors. After centrifugation, the cells were incubated with exemplary anti-PD-1 antibody at 4° C. PBMCs were then washed three times before being split into two conditions. One set of cells was incubated with exemplary anti-PD-1 antibody and the other set with IgG4 for 30 minutes at 4° C. The PBMCs were then washed four times prior to being stained with FITC-labeled anti-CD3 and PE-labeled anti-IgG4 antibodies. […] The number of CD3+/IgG4+ cells was determined for each parameter and the percentage of occupancy for the exemplary anti-PD-1 antibody was determined as follows: […]"}, "[7]": {"molecular_target": "T1, full length native human PD-1 (on …)", "assay": "flow cytometry competition on human PD-1 CHO-K1 cells; competitor PD-L1-mFc-DyL650", "description": "(§5) In these studies, human PD-L1 and PD-L2 mouse IgG1 Fc fusion proteins were expressed, purified, and labeled with DyL650. The dose-response of binding of both PD-L1 and PD-L2 to PD-1 CHO-K1 cells was determined. To quantify blocking of ligand binding to PD-1 CHO-K1 cells, exemplary anti-PD-1 antibody or IgG4 control antibody in a 3-fold dilution series was pre-mixed with PD-L1-mFc-DyL650 or PD-L2-mFc-DyL650. The mixture was added to human PD-1 CHO-K1 cells (3E5 cells) and incubated at 4° C. Cells were washed once and re-suspended in the presence of propidium iodide and DyL650-PD-L1 or DyL650-PD-L2. Binding was analyzed on a BD FACSArray (BD Bioscience), excluding dead cells."}, "[8]": {"molecular_target": "T1, full length native human PD-1 (on …)", "assay": "receptor occupancy by flow cytometry on human PBMCs (CD3+/IgG4+ cells, PE-labeled anti-IgG4), pre-incubation with a dilution series of the antibody [panel Human]", "excerpt": "as §3, §4"}, "[9]": {"molecular_target": "T1, full length native human PD-1 (on …)", "assay": "flow cytometry competition on human PD-1 CHO-K1 cells; competitor PD-L2-mFc-DyL650", "description": "as §5"}}, "data": [{"binder": "exemplary anti-PD-1 antibody (having heavy and light chains as set forth in SEQ ID NOs: 1 & 2, respectively) (antibody, human IgG4 S228P, kappa, V domains shown, occupied N-glycosylation site at asparagine residue 293 of SEQ ID NO:1, Humanized IgG4 (human IGHG4*01) with kappa light chain (IGKC*01); also called exemplary humanized monoclonal anti-PD-1 antibody; anti-PD-1 mAb) VH: EVQLLESGGGLVQPGGSLRLSCAASGFTFSSYDMSWVRQAPGKGLEWVSTISGGGSYTYYQDSVKGRFTISRDNSKNTLYLQMNSLRAEDTAVYYCASPYYAMDYWGQGTTVTVSS VL: DIQLTQSPSFLSAYVGDRVTITCKASQDVGTAVAWYQQKPGKAPKLLIYWASTLHTGVPSRFSGSGSGTEFTLTISSLQPEDFATYYCQHYSSYPWTFGQGTKLEIKR", "values": [{"measurement": "EC50", "setting": "[1]", "result": 2, "unit": "nM"}, {"measurement": "Kd", "setting": "[2]", "result": 0.3, "unit": "nM"}, {"measurement": "koff", "setting": "[2]", "result": 0.00017, "unit": "s⁻¹"}, {"measurement": "kon", "setting": "[2]", "result": 570000, "unit": "M⁻¹ s⁻¹"}, {"measurement": "Kd", "setting": "[3]", "result": 0.53, "unit": "nM"}, {"measurement": "koff", "setting": "[3]", "result": 0.00023, "unit": "s⁻¹"}, {"measurement": "kon", "setting": "[3]", "result": 430000, "unit": "M⁻¹ s⁻¹"}, {"measurement": "EC50", "setting": "[4]", "result": 3.4, "unit": "nM"}, {"measurement": "fold difference in KD against human PD-1", "setting": "[5]", "result": "< 2", "unit": "fold"}, {"measurement": "EC50 (read off the curve)", "setting": "[6]", "result": "~0.1", "unit": "µg/mL"}, {"measurement": "IC50", "setting": "[7]", "result": 1.8, "unit": "nM"}, {"measurement": "EC50 (read off the curve)", "setting": "[8]", "result": "~0.2", "unit": "µg/mL"}, {"measurement": "IC50", "setting": "[9]", "result": 1.5, "unit": "nM"}]}]}
